Data: US20240076389A1 (NATIONAL RESEARCH COUNCIL OF CANADA, published 2024)
Positions count from the first letter of the chain named.

T1: recombinant human AXL extracellular domain, C-terminally His8-tagged (rhAXL-ECD) (human, UniProt P30530 26-451)
T1 construct: Made in CHO cells; also called (rh)AXL-ECD His8; human AXL ECD
T1 sequence: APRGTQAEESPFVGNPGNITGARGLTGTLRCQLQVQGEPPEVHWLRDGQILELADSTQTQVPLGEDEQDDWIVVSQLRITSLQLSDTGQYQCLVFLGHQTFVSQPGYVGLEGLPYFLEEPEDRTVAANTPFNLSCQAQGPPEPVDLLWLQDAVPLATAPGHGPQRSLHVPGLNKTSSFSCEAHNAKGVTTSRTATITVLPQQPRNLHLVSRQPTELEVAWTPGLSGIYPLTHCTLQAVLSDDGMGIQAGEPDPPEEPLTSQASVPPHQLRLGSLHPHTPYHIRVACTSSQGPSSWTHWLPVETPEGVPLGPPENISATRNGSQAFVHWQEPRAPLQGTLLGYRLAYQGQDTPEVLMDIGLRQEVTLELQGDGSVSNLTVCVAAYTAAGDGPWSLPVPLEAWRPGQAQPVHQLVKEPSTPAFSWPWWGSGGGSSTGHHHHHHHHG

T2: mouse AXL extracellular domain (Sino cat. 51026-M08H) (mouse, UniProt Q00993 19-445)
T2 construct: extracellular domain; Bought protein; also called mouse AXL ECD
T2 sequence (looked up): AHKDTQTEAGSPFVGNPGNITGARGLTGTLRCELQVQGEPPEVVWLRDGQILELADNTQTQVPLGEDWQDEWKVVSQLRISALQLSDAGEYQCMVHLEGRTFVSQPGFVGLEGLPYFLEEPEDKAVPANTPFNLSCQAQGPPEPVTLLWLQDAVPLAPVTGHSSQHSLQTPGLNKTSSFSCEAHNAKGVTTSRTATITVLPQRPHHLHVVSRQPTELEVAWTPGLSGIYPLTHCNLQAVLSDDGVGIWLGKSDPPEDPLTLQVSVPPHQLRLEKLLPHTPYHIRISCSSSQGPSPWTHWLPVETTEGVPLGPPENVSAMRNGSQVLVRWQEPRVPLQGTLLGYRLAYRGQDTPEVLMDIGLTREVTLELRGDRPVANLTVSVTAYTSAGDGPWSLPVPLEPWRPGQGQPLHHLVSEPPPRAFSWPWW

T3: human AXL expressed on the cell surface of tumor cell lines (human, UniProt P30530 26-894)
T3 construct: whole, on cells; also called cell surface-expressed AXL; cell-based AXL
T3 sequence (looked up): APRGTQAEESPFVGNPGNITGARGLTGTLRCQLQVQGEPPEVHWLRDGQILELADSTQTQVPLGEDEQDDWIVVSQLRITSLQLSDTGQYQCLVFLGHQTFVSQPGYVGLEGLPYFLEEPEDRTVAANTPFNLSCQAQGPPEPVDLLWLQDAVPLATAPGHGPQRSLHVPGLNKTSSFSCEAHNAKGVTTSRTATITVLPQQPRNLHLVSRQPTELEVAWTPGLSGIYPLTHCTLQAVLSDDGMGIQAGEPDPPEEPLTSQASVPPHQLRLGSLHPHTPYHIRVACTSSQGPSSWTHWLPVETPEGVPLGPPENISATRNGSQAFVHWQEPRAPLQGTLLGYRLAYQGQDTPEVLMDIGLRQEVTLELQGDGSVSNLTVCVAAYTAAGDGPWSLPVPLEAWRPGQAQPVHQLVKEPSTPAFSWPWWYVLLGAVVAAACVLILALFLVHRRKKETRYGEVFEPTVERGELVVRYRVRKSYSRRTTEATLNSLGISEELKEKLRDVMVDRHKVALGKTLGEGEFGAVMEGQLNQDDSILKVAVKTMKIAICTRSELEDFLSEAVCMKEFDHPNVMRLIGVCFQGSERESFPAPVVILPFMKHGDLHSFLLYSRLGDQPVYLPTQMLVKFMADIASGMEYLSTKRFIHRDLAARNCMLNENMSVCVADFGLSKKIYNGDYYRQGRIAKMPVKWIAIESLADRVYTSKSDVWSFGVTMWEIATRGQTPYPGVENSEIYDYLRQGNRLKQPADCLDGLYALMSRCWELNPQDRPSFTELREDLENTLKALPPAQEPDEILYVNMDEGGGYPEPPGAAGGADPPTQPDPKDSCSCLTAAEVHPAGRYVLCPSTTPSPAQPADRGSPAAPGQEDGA

B1: NRC-sdAb002 (VHH monomer) (VHH)
VHH: QVQLVDSGGGLVQAGGSLRLSCATSTRTVSSAVMAWFRQAPEKVRDFVGFITNSGNILYDDSVKGRFTISRDNAQNTVYLQMNSLKPEDTAVYYCAAKWSFSSGYGDLRRAAMYDYWGQGTQVTVSS
notes: Llama VHH monomer; not shown: 6xHis and Myc tags
B2: hFC-F111-5E9 (antibody, human IgG1, kappa, V domains shown)
VH: QIQLVQSGPELKKPGETVKISCKASGYTFTKYGMNWVKQAPGKGLKWMGWINTYTGEPTYADDFKGRFAFSLETSASTAYLQINNLTTEDMVTYFCAKGGYYSNPIYPMDYWGQGTSVTVSS
VL: DIQMTQTTSSLSASLGDRVTISCRASQDINNYLNWYQQKPDGTVKLLIYYISRLHSGVPSRFSGSGSGTDYSLTISNLELEDVATYFCQQGNTLPFTFGSGTKLEIKR
notes: Chimeric mAb, human IgG1 / human kappa constant regions; also called mAb F111-5E9; hIgG-F111-5E9
B3: hFC-F107-8D12 (antibody, human IgG1, kappa, V domains shown)
VH: QVQLQQPGAELVKPGASVQLSCKASGYTFISFWINWVKQRPGQGLEWMGNIFPGSSSTNYNEKFKSKATLTVDKSSSTAYMQLSSLTSEDSAVYFCARDYYGGSPDYWGQGTTLTVSS
VL: DIVMSQSPSSLAVSAGERVTMSCKSSQSLLNTRTRKNYLAWYQQKPGQSPKLLIYWASTRESGVPDRFTGSGSGTDFTLTISSVQAEDLAVYYCKQSYNLWTFGGGTKLEIKR
notes: Chimeric mAb, human IgG1 / human kappa constant regions; also called mAb F107-8D12; chimeric F107-8D12
B4: hFC-F107-7H5 (antibody, human IgG1, kappa, V domains shown)
VH: QVQLQQPGAELVKPGASVKLSCKASGYTFTSYWINWVKQRPGQGLEWIGNIYPDSSSTNYNEKFKSKATLTVDKSSTTAYIQFSSLTSEDSAVYYCTRDTYGGSPDYWGQGTTLTVSS
VL: B3 VL with R18K, T32S, N37I, E61Q
notes: Chimeric mAb, mouse VH/VL on human IgG1 heavy and human kappa light constant regions, made in CHO cells; also called mAb F107-7H5; hIgG-F107-7H5

How the values were obtained:
[1] = biological target: T1, recombinant human AXL extracellular …; assay: SPR, steady-state analysis (format not stated)
Experimental: For VH Hs and VHH-Fcs, binding to human and cynomolgus AXL ECD was assessed using either a Biacore T200 instrument or a Biacore 3000 instrument. Either human AXL ECD or anti-human Fc antibody was immobilized on a research-grade CM5 series S sensor chip (T200, rhAXL ECD) or a C1 sensor chip (3000, anti-human Fc) using amine coupling in acetate buffer. VHH-Fcs were captured on anti-human Fc surfaces. Either monomeric VHHs (for rhAXL ECD surfaces) or human and cyno AXL ECD (for VHH-Fc surfaces) were flowed over the surfaces at different concentration ranges. Running buffers were HBS-EP (3000) and HBS-EP+(T200). Flow rates were 10-40 ul/min. All binding studies were performed at 25° C. Surfaces were regenerated using 10 mM glycine, pH 1.5.

[2] = biological target: T2, mouse AXL extracellular domain (Sino …); assay: ELISA on coated mouse AXL ECD (100 ng/well)
Experimental: (§1) ELISA. ELISAs against human, cyno and mouse AXL ECDs were conducted by immobilizing 100 ng of each protein in wells of Nunc MaxiSorp microplates overnight. Human AXL (aa 1-451) and cyno AXL (aa 1-449) were produced recombinantly as described in Example 10. Mouse AXL was purchased from Sino (cat. 51026-M08H). The next day, plates were blocked with 5% (w/v) dried milk in PBS. Murine mAbs (either hybridoma- or recombinantly-produced) or VHH-Fcs were diluted in PBS containing 1% BSA and 0.1% Tween-20 and added to wells for 2 hours at room temperature. Wells were washed 5× with PBS containing 0.1% Tween-20, then HRP-labeled protein A (diluted 1:1000 in PBS containing 1% BSA and 0.1% Tween™-20) was added to wells for 1 hour at room temperature. Wells were washed again 5× with PBS/0.1% Tween-20 and developed using TMB substrate. Absorbance was measured at 450 nm. As a positive control for mouse AXL binding, a commercial anti-mouse AXL mAb (clone 175128, R&D Systems MAB8541, rat IgG2A) was used and detected with donkey […] secondary antibody.

[3] = biological target: T3, human AXL expressed on the cell surface …; assay: FACS on MDA-MB-231 luciferase cells, apparent Kd
Experimental: (§2) FACS binding assay. Adherent cells were dissociated with non-enzymatic Sigma Cell Dissociation Solution (Cat. No. C5789). Cells suspensions were added to polypropylene, V-bottom 96-well plates and incubated for 2 hours on ice with primary antibodies at concentrations ranging from 100 nM to 0.001 nM or at a single dose of 100 nM (for the non-specific control). After incubation and washes, cells were incubated with fluorescently labeled secondary antibody (Alexa Fluor® 488 anti-human IgG from Jackson Cat. No 709-546-098) for 1 hour on ice, then washed. Cell viability was determined using Fixable viability dye 450 (20 min on ice). Stained cells were fixed in 1% formaldehyde at 4° C. and stored at 4° C. until acquisition which was performed the next day.
(§3) Binding of recombinant chimeric Abs to three cell lines was assessed by FACS as described above. The apparent Bmax and Kd determination is shown below in Table 14.

[4] = biological target: T1, recombinant human AXL extracellular …; assay: ELISA on coated AXL ECD (100 ng/well), HRP-protein A
Experimental: as §1

[5] = biological target: T1, recombinant human AXL extracellular …; assay: SPR Biacore T200, mAb captured on anti-Fc, AXL ECD flowed, single-cycle kinetics
Experimental: (§4) Surface plasmon resonance. For murine mAbs, binding to human and cynomolgus AXL ECD was assessed using a Biacore T200 instrument. Briefly, either anti-mouse or anti-human Fc antibody was immobilized on a research-grade CM5 series S sensor chip using amine coupling in acetate buffer. Murine or recombinant chimeric murine-human mAbs (mouse VH/VL; human constant regions) were captured, then recombinant human or cyno AXL ECD was flowed over the surface at different concentration ranges (0.1-500 nM) depending on the antibody. The running buffer was PBS/Tween-20 and the flow rate 100 uL/min. All binding studies were performed at 25° C. Surfaces were regenerated using 10 mM glycine, pH 1.5.

[6] = biological target: T4, recombinant cynomolgus AXL extracellular domain (cynomolgus); assay: as above
T4 construct: range 1-449; also called Cyno AXL; cyno AXL ECD
Experimental: as §4

[7] = biological target: T4, recombinant cynomolgus AXL …; assay: SPR Biacore T200, mAb captured on anti-Fc, AXL ECD flowed, steady-state analysis
Experimental: as §4

[8] = biological target: T3, human AXL expressed on the cell surface …; assay: FACS on SKOV3 cells, apparent Kd
Experimental: as §2, §3

[9] = biological target: T3, human AXL expressed on the cell surface …; assay: FACS on NCI-H292 cells, apparent Kd
Experimental: as §2, §3

[10] = biological target: T1, recombinant human AXL extracellular …; assay: SPR Biacore T200, mAb captured on anti-Fc, AXL ECD flowed (no footnote in the cell)
Experimental: as §4

Binder	Kd [1] [nM]	binding result [2]	Kd [3] [nM]	EC50 [4] [nM]	Kd [5] [nM]	koff [5] [s⁻¹]	kon [5] [M⁻¹ s⁻¹]	Kd [6] [nM]	koff [6] [s⁻¹]	kon [6] [M⁻¹ s⁻¹]	Kd [7] [nM]	Kd [8] [nM]	Kd [9] [nM]	koff [10] [s⁻¹]	kon [10] [M⁻¹ s⁻¹]
B1	96	–	–	–	–	–	–	–	–	–	–	–	–	–	–
B2	–	no binding	0.366	2	2	0.0018	780000	4	0.0027	690000	–	–	–	–	–
B3	–	no binding	–	1	5	0.013	2.7e+06	–	–	–	1840	–	–	–	–
B4	–	no binding	0.17	6	1	–	–	–	–	–	925	0.07	0.0509	0.0015	1.4e+06
